# B1: Notch homolog 2 N-terminal-like protein A (Homo sapiens), Q7Z3S9 (parent)
# chain: MCVTYHNGTGYCKCPEGFLGEYCQHRDPCEKNRCQNGGTCVAQAMLGKATCRCASGFTGEDCQYSTSHPCFVSRPCLNGGTCHMLSRDTYECTCQVGFTGKECQWTDACLSHPCANGSTCTTVANQFSCKCLTGFTGQKCETDVNECDIPGHCQHGGTCLNLPGSYQCQCLQGFTGQYCDSLYVPCAPSPCVNGGTCRQTGDFTFECNCLPETVRRGTELWERDREVWNGKEHDEN
# partner: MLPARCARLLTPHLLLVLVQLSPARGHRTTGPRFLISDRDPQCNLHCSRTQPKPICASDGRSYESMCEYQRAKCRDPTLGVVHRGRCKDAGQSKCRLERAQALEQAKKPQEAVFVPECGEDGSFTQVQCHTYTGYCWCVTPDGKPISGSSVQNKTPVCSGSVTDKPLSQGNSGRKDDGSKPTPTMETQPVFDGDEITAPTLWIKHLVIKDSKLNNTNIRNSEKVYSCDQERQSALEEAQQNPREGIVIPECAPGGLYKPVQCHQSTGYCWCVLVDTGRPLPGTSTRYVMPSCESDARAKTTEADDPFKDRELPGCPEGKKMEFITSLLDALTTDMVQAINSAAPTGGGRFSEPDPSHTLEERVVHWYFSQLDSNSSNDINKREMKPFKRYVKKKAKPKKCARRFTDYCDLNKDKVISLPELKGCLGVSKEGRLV
# B2: Syntenin-2 (Homo sapiens), Q9H190 (parent)
# chain: MSSLYPSLEDLKVDQAIQAQVRASPKMPALPVQATAISPPPVLYPNLAELENYMGLSLSSQEVQESLLQIPEGDSTAVSGPGPGQMVAPVTGYSLGVRRAEIKPGVREIHLCKDERGKTGLRLRKVDQGLFVQLVQANTPASLVGLRFGDQLLQIDGRDCAGWSSHKAHQVVKKASGDKIVVVVRDRPFQRTVTMHKDSMGHVGFVIKKGKIVSLVKGSSAARNGLLTNHYVCEVDGQNVIGLKDKKIMEILATAGNVVTLTIIPSVIYEHMVKKLPPVLLHHTMDHSIPDA
# partner: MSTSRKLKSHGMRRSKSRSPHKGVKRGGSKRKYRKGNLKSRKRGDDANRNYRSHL
# B3: E3 ubiquitin-protein ligase CCNB1IP1 (Homo sapiens), Q9NPC3 (parent)
# chain: MSLCEDMLLCNYRKCRIKLSGYAWVTACSHIFCDQHGSGEFSRSPAICPACNSTLSGKLDIVRTELSPSEEYKAMVLAGLRPEIVLDISSRALAFWTYQVHQERLYQEYNFSKAEGHLKQMEKIYTQQIQSKDVELTSMKGEVTSMKKVLEEYKKKFSDISEKLMERNRQYQKLQGLYDSLRLRNITIANHEGTLEPSMIAQSGVLGFPLGNNSKFPLDNTPVRNRGDGDGDFQFRPFFAGSPTAPEPSNSFFSFVSPSRELEQQQVSSRAFKVKRI
# Variants of: B1
# Conditions: with smoc1_human SMOC1, Q9H4F8
row,effect of a mutation on the interaction,Variant
1,with no effect,A115T
2,with no effect,R74Q

# Variants of: B2
# Conditions: with stp1_human TNP1, P09430
row,effect of a mutation on the interaction,Variant
1,disrupting interaction strength,MSSLYPSLEDLKVDQAIQAQVRASPKMPALPVQATAISPPPVLYPNLAELENYMGLSLSSQEVQESLLQIPEGDSTAVSGPGPGQMVAPVTGYSLGVRRAEIKPGVREIHLCKDERGKTGLRLRKVDQGLFVQLVQANTPASLVGLRFGDQLLQIDGRDCAGWSSHKAHQVVKKASGDKIVMVVRDRPFQRTVTMHKDSMGHVGFVIKKGKIVSLVKGSSAARNGLLTNHYVCEVDGQNVIGLKDKKIMEILATAGNVVTLTIIPSVIYEHMVKKLPPVLLHHTMDHSIPDA [V182M]

# Variants of: B3
# Conditions: with aapk2_human PRKAA2, P54646
# Sequence of aapk2_human PRKAA2, P54646 (P54646 whole entry, looked up): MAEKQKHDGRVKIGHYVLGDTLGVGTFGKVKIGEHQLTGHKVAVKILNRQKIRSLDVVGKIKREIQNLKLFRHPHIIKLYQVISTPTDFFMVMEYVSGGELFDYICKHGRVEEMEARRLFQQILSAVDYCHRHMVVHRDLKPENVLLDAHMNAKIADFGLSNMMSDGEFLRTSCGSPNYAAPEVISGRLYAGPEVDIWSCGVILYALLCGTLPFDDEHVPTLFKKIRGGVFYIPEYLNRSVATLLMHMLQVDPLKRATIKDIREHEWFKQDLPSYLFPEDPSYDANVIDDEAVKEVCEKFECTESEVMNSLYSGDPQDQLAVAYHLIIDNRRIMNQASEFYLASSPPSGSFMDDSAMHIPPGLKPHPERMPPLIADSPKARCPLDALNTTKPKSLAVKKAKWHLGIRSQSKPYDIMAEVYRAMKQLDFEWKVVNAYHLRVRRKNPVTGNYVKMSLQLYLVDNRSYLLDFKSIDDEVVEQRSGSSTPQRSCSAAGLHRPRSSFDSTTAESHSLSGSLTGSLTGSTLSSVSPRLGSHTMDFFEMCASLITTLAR
row,effect of a mutation on the interaction,Variant
1,with no effect,MSLCEDMLLCNYRKCRIKLSGYAWVTACSHIFCDQHGSGEFSRSPAICPACNSTLSGKLDIVRTELSPSEEYKAMVLAGLRPEIVLDISSRALAFWTYQVHQERLYQEYNFSKAEGHLKQMEKIYTQQIQSKDVELTSMKGEVTSMKKVLEEYKKKFSDISEKLMERNRQYQKLQGLYDSLRLRNITIANHEGTLEPSMIAQSGVLGFPLGDNSKFPLDNTPVRNRGDGDGDFQFRPFFAGSPTAPEPSNSFFSFVSPSRELEQQQVSSRAFKVKRI [N212D]
2,disrupting interaction strength,MSLCEDMLLCNYRKCRIKLSGYAWVTACSHIFCDQHGSGEFSRSPAICPACNSTLSGKLDIVRTELSPSEEYKAMVLAGLRPEIVLDISSRALAFWTYQVHQEHLYQEYNFSKAEGHLKQMEKIYTQQIQSKDVELTSMKGEVTSMKKVLEEYKKKFSDISEKLMERNRQYQKLQGLYDSLRLRNITIANHEGTLEPSMIAQSGVLGFPLGNNSKFPLDNTPVRNRGDGDGDFQFRPFFAGSPTAPEPSNSFFSFVSPSRELEQQQVSSRAFKVKRI [R104H]

# Variants of: B3
# Conditions: with KRT15, P19012
# Sequence of KRT15, P19012 (P19012 whole entry): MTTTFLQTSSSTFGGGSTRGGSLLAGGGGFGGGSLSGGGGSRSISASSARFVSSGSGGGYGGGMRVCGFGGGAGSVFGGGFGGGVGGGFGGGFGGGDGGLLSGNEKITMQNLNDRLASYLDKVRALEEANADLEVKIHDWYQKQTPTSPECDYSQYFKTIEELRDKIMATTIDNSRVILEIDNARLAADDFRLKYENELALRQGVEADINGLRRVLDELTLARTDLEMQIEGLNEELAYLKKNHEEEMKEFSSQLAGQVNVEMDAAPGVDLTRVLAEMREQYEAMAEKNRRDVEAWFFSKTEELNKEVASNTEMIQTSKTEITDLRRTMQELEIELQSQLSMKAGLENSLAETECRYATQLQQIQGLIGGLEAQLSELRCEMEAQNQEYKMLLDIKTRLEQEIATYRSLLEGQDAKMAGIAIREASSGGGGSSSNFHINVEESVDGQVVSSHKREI
row,effect of a mutation on the interaction,Variant
1,with no effect,MSLCEDMLLCNYRKCRIKLSGYAWVTACSHIFCDQHGSGEFSRSPAICPACNSTLSGKLDIVRTELSPSEEYKAMVLAGLRPEIVLDISSRALAFWTYQVHQERLYQEYNFSKAEGHLKQMEKIYTQQIQSKDVELTSMKGEVTSMKKVLEEYKKKFSDISEKLMERNRQYQKLQGLYDSLRLRNITIANHEGTLEPSMIAQSGVLGFPLGDNSKFPLDNTPVRNRGDGDGDFQFRPFFAGSPTAPEPSNSFFSFVSPSRELEQQQVSSRAFKVKRI [N212D]
2,with no effect,MSLCEDMLLCNYRKCRIKLSGYAWVTACSHIFCDQHGSGEFSRSPAICPACNSTLSGKLDIVRTELSPSEEYKAMVLAGLRPEIVLDISSRALAFWTYQVHQEHLYQEYNFSKAEGHLKQMEKIYTQQIQSKDVELTSMKGEVTSMKKVLEEYKKKFSDISEKLMERNRQYQKLQGLYDSLRLRNITIANHEGTLEPSMIAQSGVLGFPLGNNSKFPLDNTPVRNRGDGDGDFQFRPFFAGSPTAPEPSNSFFSFVSPSRELEQQQVSSRAFKVKRI [R104H]

# Variants of: B3
# Conditions: with keap1_human KEAP1, Q14145
# Sequence of keap1_human KEAP1, Q14145 (Q14145 whole entry): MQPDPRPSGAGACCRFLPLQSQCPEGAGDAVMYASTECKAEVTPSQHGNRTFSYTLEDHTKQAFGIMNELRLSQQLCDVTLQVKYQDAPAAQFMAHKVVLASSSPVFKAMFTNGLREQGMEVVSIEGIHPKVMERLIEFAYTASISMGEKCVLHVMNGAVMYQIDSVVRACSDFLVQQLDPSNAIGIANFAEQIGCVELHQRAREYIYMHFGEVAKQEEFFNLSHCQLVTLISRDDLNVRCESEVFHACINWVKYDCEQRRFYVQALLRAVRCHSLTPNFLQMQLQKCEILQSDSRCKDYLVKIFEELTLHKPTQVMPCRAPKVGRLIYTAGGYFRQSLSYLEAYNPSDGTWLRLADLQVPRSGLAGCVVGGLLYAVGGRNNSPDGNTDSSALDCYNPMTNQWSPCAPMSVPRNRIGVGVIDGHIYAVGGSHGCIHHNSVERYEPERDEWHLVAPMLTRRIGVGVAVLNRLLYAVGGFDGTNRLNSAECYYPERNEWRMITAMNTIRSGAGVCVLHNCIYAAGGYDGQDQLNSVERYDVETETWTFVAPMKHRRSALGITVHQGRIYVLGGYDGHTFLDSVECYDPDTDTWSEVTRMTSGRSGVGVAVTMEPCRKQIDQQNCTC
row,effect of a mutation on the interaction,Variant
1,with no effect,MSLCEDMLLCNYRKCRIKLSGYAWVTACSHIFCDQHGSGEFSRSPAICPACNSTLSGKLDIVRTELSPSEEYKAMVLAGLRPEIVLDISSRALAFWTYQVHQERLYQEYNFSKAEGHLKQMEKIYTQQIQSKDVELTSMKGEVTSMKKVLEEYKKKFSDISEKLMERNRQYQKLQGLYDSLRLRNITIANHEGTLEPSMIAQSGVLGFPLGDNSKFPLDNTPVRNRGDGDGDFQFRPFFAGSPTAPEPSNSFFSFVSPSRELEQQQVSSRAFKVKRI [N212D]
2,with no effect,MSLCEDMLLCNYRKCRIKLSGYAWVTACSHIFCDQHGSGEFSRSPAICPACNSTLSGKLDIVRTELSPSEEYKAMVLAGLRPEIVLDISSRALAFWTYQVHQEHLYQEYNFSKAEGHLKQMEKIYTQQIQSKDVELTSMKGEVTSMKKVLEEYKKKFSDISEKLMERNRQYQKLQGLYDSLRLRNITIANHEGTLEPSMIAQSGVLGFPLGNNSKFPLDNTPVRNRGDGDGDFQFRPFFAGSPTAPEPSNSFFSFVSPSRELEQQQVSSRAFKVKRI [R104H]
